{
  "source": "paper PMC7189753",
  "target": "ChuX",
  "test": "AUC",
  "data": [
    {"substance": "ChuX (natural protein)", "values": [
      {"measurement": "percent of the sample as dimer (2.9 S species)", "result": 81.3, "unit": "%"},
      {"measurement": "percent of the sample as tetramer (4.5 S species)", "result": 10.8, "unit": "%"}
    ]}
  ]
}
